Here are results for two molecules from article PMC9896810, “Crk proteins activate the Rap1 guanine nucleotide exchange factor C3G by segregated adaptor-dependent and -independent mechanisms” (Cell Communication and Signaling : CCS, 2023).

One test deals with T1, C3G-AAAP (human, UniProt Q13905-1 4-1077, P283A | P284A | L286 | P287 | P289A | P453A | P454A | L456A | P457A | K459A | …).
T1 construct: human C3G isoform a, residues 4-1077; only P4 kept, P1, P2 and P3 mutated to Ala; source: E. coli BL21 (DE3), purified (IMAC, TEV digestion, reversed IMAC, SEC); not shown: His, N-terminal, cleaved; Halo, N-terminal, cleaved
T1 sequence (looked up): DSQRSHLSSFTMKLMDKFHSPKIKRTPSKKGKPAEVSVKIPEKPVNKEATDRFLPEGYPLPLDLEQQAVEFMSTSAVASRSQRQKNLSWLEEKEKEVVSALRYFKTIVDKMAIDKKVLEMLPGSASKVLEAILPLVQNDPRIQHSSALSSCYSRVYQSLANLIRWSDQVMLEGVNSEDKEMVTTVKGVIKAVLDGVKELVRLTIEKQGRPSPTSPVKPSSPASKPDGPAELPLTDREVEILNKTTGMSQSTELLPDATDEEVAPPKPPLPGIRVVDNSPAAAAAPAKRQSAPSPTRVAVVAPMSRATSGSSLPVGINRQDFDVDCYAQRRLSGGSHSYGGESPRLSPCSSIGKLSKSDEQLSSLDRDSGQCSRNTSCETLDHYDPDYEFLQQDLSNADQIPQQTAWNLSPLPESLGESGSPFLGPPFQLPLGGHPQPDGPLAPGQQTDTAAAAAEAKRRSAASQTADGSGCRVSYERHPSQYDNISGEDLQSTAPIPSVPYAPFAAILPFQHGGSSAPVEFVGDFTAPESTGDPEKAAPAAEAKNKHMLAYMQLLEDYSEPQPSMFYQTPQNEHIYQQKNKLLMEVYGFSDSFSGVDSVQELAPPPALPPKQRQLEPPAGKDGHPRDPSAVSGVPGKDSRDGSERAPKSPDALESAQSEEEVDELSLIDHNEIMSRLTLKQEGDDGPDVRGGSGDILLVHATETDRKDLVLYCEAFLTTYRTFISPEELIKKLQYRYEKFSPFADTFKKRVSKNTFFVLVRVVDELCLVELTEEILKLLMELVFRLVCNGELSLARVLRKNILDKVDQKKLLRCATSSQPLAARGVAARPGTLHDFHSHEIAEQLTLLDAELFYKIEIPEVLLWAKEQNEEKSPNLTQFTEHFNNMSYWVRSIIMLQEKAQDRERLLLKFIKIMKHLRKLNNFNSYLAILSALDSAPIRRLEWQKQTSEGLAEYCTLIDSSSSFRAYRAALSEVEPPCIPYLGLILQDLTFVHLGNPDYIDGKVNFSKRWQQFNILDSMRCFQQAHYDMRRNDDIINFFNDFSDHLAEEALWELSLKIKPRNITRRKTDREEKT
Briefly: ITC; single-PRM mutant of C3G in the cell titrated with CrkL or CrkL-SH3N, 25 °C, 300 mM NaCl, pH 7.5; SEDPHAT, 1:1 heteroassociation model; N is the competent fraction of C3G. Conditions: both partners purified. For orientation: Isothermal titration calorimetry measures the heat released or taken up as one component is titrated into another.

The target in test [1] is T2, C3G (full-length, residues 4-1077) (human, UniProt Q13905-1 4-1077).
T2 construct: also called C3G WT; RapGEF1; source: E. coli BL21 (DE3), purified (IMAC, TEV digestion, reversed IMAC, SEC); not shown: His, N-terminal, cleaved; Halo, N-terminal, cleaved
T2 sequence (looked up): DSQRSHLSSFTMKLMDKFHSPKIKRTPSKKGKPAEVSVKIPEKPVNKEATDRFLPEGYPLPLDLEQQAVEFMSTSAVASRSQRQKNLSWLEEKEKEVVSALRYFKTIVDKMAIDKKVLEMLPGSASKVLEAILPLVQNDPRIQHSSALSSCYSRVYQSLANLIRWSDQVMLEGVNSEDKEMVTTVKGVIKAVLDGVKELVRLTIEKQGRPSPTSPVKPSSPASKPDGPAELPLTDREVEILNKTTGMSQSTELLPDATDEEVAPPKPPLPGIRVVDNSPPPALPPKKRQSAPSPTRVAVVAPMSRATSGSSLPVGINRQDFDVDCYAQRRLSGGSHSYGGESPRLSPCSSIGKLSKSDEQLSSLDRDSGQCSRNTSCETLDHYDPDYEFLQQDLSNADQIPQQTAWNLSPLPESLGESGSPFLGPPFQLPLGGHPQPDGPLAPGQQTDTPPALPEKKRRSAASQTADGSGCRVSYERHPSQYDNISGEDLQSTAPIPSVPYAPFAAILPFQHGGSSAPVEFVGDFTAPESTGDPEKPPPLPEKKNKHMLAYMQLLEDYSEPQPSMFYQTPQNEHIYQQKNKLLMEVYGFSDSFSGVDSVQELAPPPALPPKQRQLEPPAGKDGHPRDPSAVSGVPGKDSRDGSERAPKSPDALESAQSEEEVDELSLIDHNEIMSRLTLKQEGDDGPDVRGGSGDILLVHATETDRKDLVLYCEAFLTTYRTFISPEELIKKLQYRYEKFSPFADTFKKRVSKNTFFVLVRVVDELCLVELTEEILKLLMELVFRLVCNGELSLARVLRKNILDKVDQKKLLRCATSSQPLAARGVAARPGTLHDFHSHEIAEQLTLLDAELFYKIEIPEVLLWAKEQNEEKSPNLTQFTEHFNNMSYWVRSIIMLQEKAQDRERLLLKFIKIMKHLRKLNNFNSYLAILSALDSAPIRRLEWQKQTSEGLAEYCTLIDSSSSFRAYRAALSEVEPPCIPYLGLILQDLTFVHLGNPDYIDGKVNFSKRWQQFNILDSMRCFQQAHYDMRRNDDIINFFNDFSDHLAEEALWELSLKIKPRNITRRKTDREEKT
Description: ITC; C3G or pC3G in the cell titrated with the Crk protein, 25 °C, 300 mM NaCl, pH 7.5; global fit of three titrations with SEDPHAT, three symmetric binding sites, microscopic kd. Particulars: both partners purified.

B1: CrkL (full-length) (natural protein, human, UniProt P46109 1-303, looked up)
chain: MSSARFDSSDRSAWYMGPVSRQEAQTRLQGQRHGMFLVRDSSTCPGDYVLSVSENSRVSHYIINSLPNRRFKIGDQEFDHLPALLEFYKIHYLDTTTLIEPAPRYPSPPMGSVSAPNLPTAEDNLEYVRTLYDFPGNDAEDLPFKKGEILVIIEKPEEQWWSARNKDGRVGMIPVPYVEKLVRSSPHGKHGNRNSNSYGIPEPAHAYAQPQTTTPLPAVSGSPGAAITPLPSTQNGPVFAKAIQKRVPCAYDKTALALEVGDIVKVTRMNINGQWEGEVNGRKGLFPFTHVKIFDPQNPDENE
notes: human CrkL, residues 1-303, in pETEV15b; also called Crk-like protein; source: E. coli BL21 (DE3), purified (IMAC, TEV digestion, SEC); not shown: His, N-terminal, cleaved
In the test with C3G-AAAP, B1 yielded a Kd of 2400 nM.

B2: CrkL-SH3N (domain or fragment, human, UniProt P46109 125-182, looked up)
chain: LEYVRTLYDFPGNDAEDLPFKKGEILVIIEKPEEQWWSARNKDGRVGMIPVPYVEKLV
notes: human CrkL, SH3N domain, residues 125-182, in pETEV15b; source: E. coli BL21 (DE3), purified (IMAC, TEV digestion, SEC); not shown: His, N-terminal, cleaved
With B2, in the test with C3G-AAAP, the Kd stood at 2700 nM and the “stoichiometry N” value was 0.71. In addition, the Kd in test [1] amounted to 1600 nM.

What is called Kd is the equilibrium constant for the complex coming apart. Low readings indicate tighter binding, high ones weaker binding. As a reminder, the stoichiometry N is the number of molecules, sites or subunits per partner or assembly.
